{
  "source": "patent US20170096478A1",
  "about": "“THERAPEUTIC AGENT FOR INFLAMMATORY DISEASE” (Josai University Corporation, priority 2012, published 2017)",
  "molecules": {"B1": {"name": "SSV mAb: monoclonal antibody (IgG1) produced by Mouse-Mouse hybridoma SSV-C 93-3 (NITE BP-972), raised against peptide … (SEQ ID NO:1)-KLH conjugate (antibody, V domains shown)", "VH": "EIQLQQSGAELVKPGASVKISCKASGYSFTGYNMNWVKQSHGKSLEWIGNINPYYGSTSYNQKFKGKATLTVDKSSSTAYMQLNSLTSEDSAVYYCARSPYYSNYWRYFDYWGQGTTLTVSS", "VL": "QIVLSQSPAILSASPGEKVTMTCRASSSVSYMHWYQQKPGSSPKPWIYATSNLASGVPARFSGSGSGTSYSLTISRVEAEDAATYYCQQWSSNPWTFGGGTKLEIK"}},
  "key": {"histone H2A": {"tested_on": "histone H2A", "experiment": "ELISA affinity for histone H2A", "format": "binding", "conditions": "absorbance at 405 nm; 5 μg/mL antibody; compared with histone H1", "protocol": "(§1) The Affinities between histone H1 or core histone and SSVmAb were determined by ELISA.\n(§2) A 96 well microplate was coated with histone H1, H2A, H2B, H3 or H4. Each histone used was dissolved in 100 mM sodium carbonate buffer (pH 9.3). The plate was washed with PBS-tween 20 (0.05%), and blocked with 3% skim milk and 1% BSA for 1 hour. To each well, 5 μg/mL SSVmAb was added, and incubated for 1 hour. Bound SSVmAb was detected using peroxidase (HRP) conjugated anti mouse IgG1 Ab (SIGMA), and incubated for 1 hour. Bound SSVmAb was detected using the ABTS [2,2′-azino-bis(3-ethylbenzothiazoline-sulfonic acid)] substrate solution, and absorbance at 405 nm was measured using Multiskan Ascent (Thermo Fisher Scientific Inc., Waltham, Mass.)."}, "histone H2B": {"tested_on": "histone H2B", "experiment": "ELISA affinity for histone H2B", "format": "binding", "conditions": "absorbance at 405 nm; 5 μg/mL antibody; compared with histone H1", "protocol": "as §1, §2"}, "histone H3": {"tested_on": "histone H3", "experiment": "ELISA affinity for histone H3", "format": "binding", "conditions": "absorbance at 405 nm, 5 μg/mL antibody, compared with histone H1", "protocol": "as §1, §2\n(§3) After the end of the tests, binding assays of SSV mAb with histone H1, histone H3 and histone H4 were carried out by ELISA in the same manner as Test Example 2."}, "histone H4": {"target": "histone H4 (Homo sapiens, UniProt P62805)", "experiment": "ELISA affinity for histone H4", "format": "binding", "conditions": "absorbance at 405 nm, 5 μg/mL antibody, compared with histone H1", "protocol": "as §1, §2, §3"}, "[1]": {"tested_on": "lipopolysaccharide (LPS)-induced lethal sepsis", "experiment": "Test Example 7: survival in LPS-induced lethal sepsis", "format": "in vivo, BALB/c mice", "protocol": "BALB/c mice (bodyweight of 20 g to 30 g when starting the experiments, n=6) were raised in a plastic cage under SPF and thermo-hydrostat (22±1° C., 55±5%) conditions under 12-hour light-dark cycle. Foods and water were supplied ad libitum. Lipopolysaccharide (LPS)-induced lethal sepsis which is generally employed as an experimental sepsis model was induced by intraperitoneally administering LPS at a dose of 40 mg/kg. SSV mAb dissolved in physiological saline was intraperitoneally administered totally 3 times, i.e., at 30 minutes before, 6 hours after and 12 hours after the intraperitoneal administration of LPS, in an amount of 100 μg/dose in terms of the amount of SSV mAb. The survival of the animals thereafter was tested. To the control group, IgG (SIGMA) dissolved in physiological saline was administered in place of SSV mAb in the same manner."}, "[2]": {"tested_on": "lipopolysaccharide (LPS)-induced lethal sepsis", "experiment": "Test Example 8-1: survival in LPS-induced lethal sepsis", "format": "in vivo, BALB/c mice", "protocol": "(§4) BALB/c mice (bodyweight of 20 g to 30 g when starting the experiments, n=10) were raised in a plastic cage under SPF and thermo-hydrostat (22±1° C., 55±5%) conditions under 12-hour light-dark cycle. Foods and water were supplied ad libitum. Then, by intraperitoneally administering LPS to the mice at a dose of 40 mg/kg, lipopolysaccharide (LPS)-induced lethal sepsis as an inflammatory disease was induced in the same manner as Test Example 7. SSV mAb dissolved in physiological saline was intraperitoneally administered totally 3 times, i.e., at 30 minutes before, 6 hours after and 12 hours after the intraperitoneal administration of LPS, in an amount of 100 μg/dose in terms of the amount of SSV mAb. The survival of the animals thereafter was tested. To the control group, IgG (SIGMA) dissolved in physiological saline was administered in place of SSV mAb in the same manner."}, "[3]": {"tested_on": "lipopolysaccharide (LPS)-induced lethal sepsis", "experiment": "Test Example 8-3: staining test of lung tissue", "format": "in vivo, BALB/c mice", "conditions": "after the end of Test Example 8", "protocol": "as §4\nAfter the end of Test Example 8, lung tissue sections were each obtained from […] of control group and SSV mAb-administered group, and stained by using hematoxylin and eosin stain (from Wako Pure Chemical Industries, Ltd.) according to the method conducted by Hasegawa et al. (Surg Res. 2012 May 1; 174(1):136-41.). Next, micrographs of the obtained samples were taken.\nAs a reference, micrographs of lung tissue slices from healthy rats were taken in the same manner."}, "[4]": {"tested_on": "lipopolysaccharide (LPS)-induced lethal sepsis", "experiment": "Test Example 8-4: evaluation of congestion, edema, inflammation and bleeding", "format": "in vivo, BALB/c mice", "conditions": "vs control group", "protocol": "as §4\nAfter the end of Test Example 8, scores of congestion, edema, inflammation and bleeding were evaluated according to the method of Murakami et al. (Shock, 18 (2002), p. 236). In particular, magnified images of 24 visual fields under a microscope were subjected to observation. The degrees of deterioration of congestion, edema and inflammation in the SSV mAb-administered group and the control group were evaluated on a 5-point scale ranging from 0 to 4 (4 is the highest deterioration)."}, "[5]": {"tested_on": "lipopolysaccharide (LPS)-induced lethal sepsis", "experiment": "Test Example 8-5: measurement of inflammation-associated cytokine in serum", "format": "in vivo, BALB/c mice", "conditions": "vs control group", "protocol": "as §4\nIn Test Example 8, serum was obtained from venous blood of the control group and the SSV mAb-administered group every 3 hours. Then, the concentrations of inflammatory cytokine (TNF-α, IL-1β, IL-6) and inhibitory cytokine (IL-10) in obtained samples were measured by using a commercially available measurement kit using ELISA."}, "[6]": {"tested_on": "renal ischemia reperfusion injury", "experiment": "Test Example 10: acute renal failure due to renal ischemia reperfusion injury, check test 2", "format": "in vivo, male Wistar rats", "conditions": "autopsy after the end of the test; vs control group", "protocol": "Right kidney was removed from male Wistar rat (n=4) under general anesthesia, and then left kidney of the rat was subjected to ischemia reperfusion with vascular clip to prepare a model. For SSV mAb-administered group, SSV mAb was then administered in an amount of 10 mg/kg 30 minutes before preparing the model and immediately after the reperfusion Test was carried out in the same manner as Test Example 10 except that male Wistar rats (n=4-6) were used and except that, for SSV mAb-administered group, SSV mAb was administered in an amount of 10 mg/kg 30 minutes before preparing the model and 6 hours after the reperfusion. For control, IgG (SIGMA) was administered in place of SSV mAb in the same manner. Then, the concentrations of urea nitrogen (BUN) and creatinine (Cr) in serum at 24 hours after preparing the model were measured and the nephropathy level was evaluated. Further, the rats were subjected to autopsy after the end of the test, and histological evaluation was performed."}, "[7]": {"conditions": "70 hours after administration of LPS, p<0.05"}},
  "data": [
    {"molecule": "B1", "values": [
      {"measurement": "affinity for histone H2A (ELISA)", "setting": "histone H2A", "result": "higher than the affinity for histone H1"},
      {"measurement": "affinity for histone H2B (ELISA)", "setting": "histone H2B", "result": "higher than the affinity for histone H1"},
      {"measurement": "affinity for histone H3 (ELISA)", "setting": "histone H3", "result": "binding capacity"},
      {"measurement": "affinity for histone H3 (ELISA)", "setting": "histone H3; listed as SSVmAb", "result": "higher than the affinity for histone H1"},
      {"measurement": "affinity for histone H4 (ELISA)", "setting": "histone H4", "result": "binding capacity"},
      {"measurement": "affinity for histone H4 (ELISA)", "setting": "histone H4; listed as SSVmAb", "result": "higher than the affinity for histone H1"},
      {"measurement": "cumulative survival rate", "setting": "[1]; 70 hours after administration of LPS", "result": 0.7},
      {"measurement": "survival rate", "setting": "[1]; 70 hours after administration of LPS 40 mg/kg i.p., 100 μg/dose i.p. 3 times", "result": 70, "unit": "%"},
      {"measurement": "survival rate relative to that of the control group", "setting": "[1]; [7]", "result": "about 3.5 times"},
      {"measurement": "survival rate", "setting": "[2]; 24 hours after administration of LPS 40 mg/kg i.p., 100 μg/dose i.p. 3 times", "result": 70, "unit": "%"},
      {"measurement": "survival rate relative to that of the control group", "setting": "[2]; [7]", "result": "about 3.5 times"},
      {"measurement": "inflammation in lungs (hematoxylin and eosin stained lung tissue sections)", "setting": "[3]", "result": "not observed"},
      {"measurement": "score of congestion", "setting": "[4]; 5-point scale 0 to 4", "result": "significantly lower"},
      {"measurement": "score of edema", "setting": "[4]; 5-point scale 0 to 4", "result": "significantly lower"},
      {"measurement": "score of inflammation", "setting": "[4]; 5-point scale 0 to 4", "result": "significantly lower"},
      {"measurement": "score of bleeding", "setting": "[4]", "result": "significantly lower"},
      {"measurement": "IL-1β concentration in blood sample", "setting": "[5]", "result": "significantly decreased"},
      {"measurement": "IL-6 concentration in blood sample", "setting": "[5]", "result": "significantly decreased"},
      {"measurement": "IL-10 concentration in blood sample", "setting": "[5]", "result": "significantly increased"},
      {"measurement": "TNF-α concentration in blood sample", "setting": "[5]", "result": "significantly decreased"},
      {"measurement": "histological evaluation of kidney", "setting": "[6]", "result": "better than that of the control group"}
    ]}
  ]
}
